The source of these data is US20240343811A1 (SHANDONG SIMCERE BIOPHARMACUTICAL, published 2024).

As a reminder, the EC50 is the midpoint of the concentration-response curve. High values mean weaker potency, low ones greater potency. A word on the Kd: it is the concentration at which binding is half-saturated. Lower therefore signals tighter binding. The term koff denotes a measure of how fast the partners let go of each other. A lower koff goes with a long-lived complex. As usually defined, the kon is a measure of how fast the partners come together. A lower kon goes with slower complex formation.

The target in test [1] is T1, CD16 on primary human NK cells (human, UniProt P08637 17-254).
T1 construct: whole, on cells; also called resting NK cells
The test is described as follows: FACS on human NK cells. Put shortly: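 Freshly prepared human NK cells were resuspended at 2×10⁶ cells/ml in PBS+2% (w/w) BSA and incubated 1 h on ice with antibody at varying concentrations. After five PBS washes, flow cytometry gave mean fluorescence intensity, and EC50 was fitted from the MFI curve.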

For test [2], the target named is T2, human CD16a (158F), full length, on FlpinCHO cells (human, UniProt P08637 17-254). The test is described as follows: FACS, biotinylated antibody. In general terms: Flow cytometry measures light scatter and fluorescence of single cells or particles in a stream.
T2 sequence (P08637 17-254 limits assumed): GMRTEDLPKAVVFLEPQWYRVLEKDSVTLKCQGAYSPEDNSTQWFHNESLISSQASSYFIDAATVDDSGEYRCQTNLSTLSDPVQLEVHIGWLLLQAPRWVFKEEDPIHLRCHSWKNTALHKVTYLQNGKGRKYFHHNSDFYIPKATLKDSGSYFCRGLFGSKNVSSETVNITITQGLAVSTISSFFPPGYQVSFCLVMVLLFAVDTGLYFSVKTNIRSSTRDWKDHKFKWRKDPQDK
The target of test [3] is T3, human CD16a (158V), full length, on cells (human, UniProt P08637 17-254).
T3 construct: also used as target for the bought Jurkat-NFAT reporter line stably expressing human CD16a (158V); also called FlpinCHO-human CD16a (158V); FlpinCHO-CD16a (158V)
T3 sequence (P08637 17-254 F176V limits assumed): as the sequence (P08637 17-254 limits assumed) above, with F160V counted along it
The test is described as follows: FACS, biotinylated antibody.

Test [4] concerns the target T1, CD16 on primary human NK cells. The experiment in a line: FACS on human NK cells, biotinylated antibody.
The target in another test is T4, Human CD16b (NA2)-his (human).
T4 construct: entry holds ECD, linker, His tag and AVI tag
T4 chain: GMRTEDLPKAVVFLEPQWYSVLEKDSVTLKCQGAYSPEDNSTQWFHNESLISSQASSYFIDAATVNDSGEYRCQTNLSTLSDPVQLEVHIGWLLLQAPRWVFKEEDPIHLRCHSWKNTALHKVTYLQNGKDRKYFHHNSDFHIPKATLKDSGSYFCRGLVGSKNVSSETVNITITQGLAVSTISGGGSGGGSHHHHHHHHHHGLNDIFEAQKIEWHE
The experiment in a line: SPR (Biacore), antibody captured on Protein A. Put shortly:
(§1)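 Protein A–captured antibody was probed with CD16-his ECD in HBS-EP+ at 25 °C: five 2-fold dilutions from 200 nM, 240 s at 30 μL/min, dissociation up to 600 s. Glycine pH 1.5 regenerated the chip. Apparent KD came from a double-referenced 1:1 Langmuir fit.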

The next test concerns the target T5, Human CD16b (SH)-his (human).
T5 construct: entry holds ECD, linker, His tag and AVI tag
T5 chain: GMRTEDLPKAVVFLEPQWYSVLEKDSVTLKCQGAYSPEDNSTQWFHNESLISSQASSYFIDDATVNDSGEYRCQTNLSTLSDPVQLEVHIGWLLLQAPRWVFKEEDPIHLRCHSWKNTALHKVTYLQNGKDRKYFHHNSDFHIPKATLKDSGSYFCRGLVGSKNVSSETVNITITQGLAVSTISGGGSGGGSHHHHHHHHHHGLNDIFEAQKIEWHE
The experiment in a line: SPR (Biacore), antibody captured on Protein A. Put shortly:
as §1

Test [5] has as its target T2, human CD16a (158F), full length, on …. The test is described as follows: FACS, biotinylated antibody, +10 mg/mL human immunoglobulin.
Test [6] concerns the target T3, human CD16a (158V), full length, on …. The test is described as above.
In test [7] the target is T1, CD16 on primary human NK cells. The test is described as follows: FACS on human NK cells, biotinylated antibody, +10 mg/mL human immunoglobulin.

B1: VHH11 VHH-Fc antibody (Fc fusion)
chain: EVQVVESGGGLAQAGGSLRLSCAVSGITFSSYAMGWYRQDPGKQRELVAAINRFGLTNYADSVKGRFTISRDNAKNTVYLQMTSLKPEDTAVYYCNTGGVYSHPNYYTGTYWGQGTQVTVSSEPKSSDKTHTCPPCPAPEFEGGPSVFLFPPKPKDTLMISRTPEVTCVVVAVSHEDPEVKFNWYVDGVEVHNAKTKPREEQYNSTYRVVSVLTVLHQDWLNGKEYKCKVSNKALPAPIEKTISKAKGQPREPQVYTLPPSREEMTKNQVSLTCLVKGFYPSDIAVEWESNGQPENNYKTTPPVLDSDGSFFLYSKLTVDKSRWQQGNVFSCSVMHEALHNHYTQKSLSLSPGK
For B1, the EC50 in [1] turned out to be 0.33 nM; in [2] it was 0.2 nM; in test [3] it was 0.36 nM; in test [4], 0.95 nM; in test [5] it was 0.75 nM; in [6], 1.12 nM. In addition, the EC50 in [7] worked out at 2.31 nM. The “Maximum mean fluorescence intensity” value in [1] stood at 2660; in [2], 7240; in test [3], 10700; in test [4], 60700; in test [5], 6720; in test [6] it was 10800. Also, the “Maximum mean fluorescence intensity” value in test [7] is 62300. Also, the Kd with Human CD16b (NA2)-his was 4920 nM; in the test with Human CD16b (SH)-his it was 4930 nM. For the same molecule, the off-rate (koff) turned out to be 0.2 s⁻¹ with Human CD16b (NA2)-his and 0.193 s⁻¹ with Human CD16b (SH)-his. Moreover, the kon with Human CD16b (NA2)-his was 40700 M⁻¹ s⁻¹; with Human CD16b (SH)-his, 39100 M⁻¹ s⁻¹.

B2: VHH12 VHH-Fc antibody (Fc fusion)
chain: QVQLVESGGGLVQAGGSLRLSCAASGITFSSYAMGWYRQAPGKQRELVAAINRFGLTNYADFVKGRFTISRVNAKNTVYLQMTSLKPEDTAVYYCNTGGVYSHPDYYTGTYWGQGTQVTVSSEPKSSDKTHTCPPCPAPEFEGGPSVFLFPPKPKDTLMISRTPEVTCVVVAVSHEDPEVKFNWYVDGVEVHNAKTKPREEQYNSTYRVVSVLTVLHQDWLNGKEYKCKVSNKALPAPIEKTISKAKGQPREPQVYTLPPSREEMTKNQVSLTCLVKGFYPSDIAVEWESNGQPENNYKTTPPVLDSDGSFFLYSKLTVDKSRWQQGNVFSCSVMHEALHNHYTQKSLSLSPGK
Take B2: the EC50 came out at 0.21 nM in test [1]; 0.12 nM in [2]; 0.16 nM in test [3]; 0.4 nM in test [4]; 0.81 nM in test [5]; 0.97 nM in [6]. In addition, the EC50 in test [7] was 1.82 nM. In addition, the “Maximum mean fluorescence intensity” value in [1] is 2680; in test [2], 5410; in test [3], 7950; in [4], 46500; in test [5] it was 5310; in [6] it was 8140. Further, the “Maximum mean fluorescence intensity” value in test [7] came out at 48900. In addition, the Kd was 1050 nM with Human CD16b (NA2)-his and 1160 nM with Human CD16b (SH)-his. The koff with Human CD16b (NA2)-his was 0.0998 s⁻¹; with Human CD16b (SH)-his it was 0.106 s⁻¹. For the same molecule, the kon with Human CD16b (NA2)-his was determined as 95100 M⁻¹ s⁻¹; with Human CD16b (SH)-his, 91500 M⁻¹ s⁻¹.

B3: VHH06 VHH-Fc antibody (Fc fusion)
chain: EVQLVESGGGLVQAGGSLRLSCVASGSTWTTYAVRWYRQAPGKQREWVAFISVDGSTNYPDSVKGRFIVSRDNAKNTVYLQMNSLKPEDTADYICRVGGQYWGQGTQVTVSSEPKSSDKTHTCPPCPAPEFEGGPSVFLFPPKPKDTLMISRTPEVTCVVVAVSHEDPEVKFNWYVDGVEVHNAKTKPREEQYNSTYRVVSVLTVLHQDWLNGKEYKCKVSNKALPAPIEKTISKAKGQPREPQVYTLPPSREEMTKNQVSLTCLVKGFYPSDIAVEWESNGQPENNYKTTPPVLDSDGSFFLYSKLTVDKSRWQQGNVFSCSVMHEALHNHYTQKSLSLSPGK
Turning to B3, the EC50 in test [1] is 0.54 nM; in test [2], 0.39 nM; in test [3] it was 0.79 nM; in test [4], 1.42 nM; in test [5], 1.66 nM; in test [6], 1.77 nM. Also, the midpoint of the response in test [7], the EC50, lay at 3.9 nM. For the same molecule, the “Maximum mean fluorescence intensity” value in test [1] turned out to be 2600; in [2], 9740; in test [3], 13300; in test [4] it was 69600; in test [5], 10700; in test [6], 14500. For the same molecule, the “Maximum mean fluorescence intensity” value in test [7] was found to be 80000.
